Data published in article PMC9482650, “Quantitative fragmentomics allow affinity mapping of interactomes” (Nature Communications, 2022).

Tests used:
Test in all cases: holdup assay
Parameters in all cases: key: below the threshold = too weak to quantify, mostly under pKd 3.1 to 4
[1] = target: T1, APBA2_2, Q99767
T1 sequence (Q99767 654-744, limits assumed, looked up): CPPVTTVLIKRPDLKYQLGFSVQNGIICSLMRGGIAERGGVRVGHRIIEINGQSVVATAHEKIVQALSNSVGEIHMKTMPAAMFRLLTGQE

[2] = target: LDB3, O75112
[3] = target: DLG5_1, Q8TDM6
Chain of DLG5_1, Q8TDM6 (Q8TDM6 617-713): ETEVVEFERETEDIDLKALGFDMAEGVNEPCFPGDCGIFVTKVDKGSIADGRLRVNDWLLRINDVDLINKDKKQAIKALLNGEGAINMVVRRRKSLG

[4] = target: T2, SNTG1, Q9NSN8
T2 sequence (Q9NSN8 52-150, limits assumed, looked up): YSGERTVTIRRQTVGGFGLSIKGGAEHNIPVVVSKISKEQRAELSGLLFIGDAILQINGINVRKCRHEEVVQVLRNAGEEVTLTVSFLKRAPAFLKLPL

[5] = target: TJP2_1, Q9UDY2
Chain of TJP2_1, Q9UDY2 (Q9UDY2 24-128): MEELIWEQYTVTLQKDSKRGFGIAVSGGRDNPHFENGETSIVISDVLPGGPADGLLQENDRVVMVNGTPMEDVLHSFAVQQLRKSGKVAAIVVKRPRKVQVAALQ

[6] = target: T3, GRIP1_3, Q9Y3R0
T3 sequence (Q9Y3R0 247-346, limits assumed, looked up): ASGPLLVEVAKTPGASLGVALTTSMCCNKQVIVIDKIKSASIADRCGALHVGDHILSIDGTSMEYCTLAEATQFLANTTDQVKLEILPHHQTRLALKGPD

[7] = target: LNX1_1, Q8TBB1
Chain of LNX1_1, Q8TBB1 (Q8TBB1 261-371): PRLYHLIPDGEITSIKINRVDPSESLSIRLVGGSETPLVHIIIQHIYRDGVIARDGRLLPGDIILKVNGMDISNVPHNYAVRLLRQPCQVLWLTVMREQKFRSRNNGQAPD

[8] = target: T4, NHERF3_1, Q5T2W1
T4 sequence (Q5T2W1 4-100, limits assumed, looked up): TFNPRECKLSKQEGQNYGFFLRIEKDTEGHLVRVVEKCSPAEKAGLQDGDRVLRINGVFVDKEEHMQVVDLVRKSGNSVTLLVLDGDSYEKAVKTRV

[9] = target: HTRA2, O43464
Chain of HTRA2, O43464 (O43464 355-458): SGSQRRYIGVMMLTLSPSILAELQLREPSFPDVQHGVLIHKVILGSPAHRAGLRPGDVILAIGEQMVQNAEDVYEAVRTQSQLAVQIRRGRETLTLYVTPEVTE

[10] = target: PDLIM1, O00151
Chain of PDLIM1, O00151 (O00151 1-87): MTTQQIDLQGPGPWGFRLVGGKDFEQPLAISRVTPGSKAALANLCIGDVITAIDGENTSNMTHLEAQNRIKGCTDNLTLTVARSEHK

[11] = target: Inadl_2, Q8NI35
Chain of Inadl_2, Q8NI35 (Q8NI35 238-335): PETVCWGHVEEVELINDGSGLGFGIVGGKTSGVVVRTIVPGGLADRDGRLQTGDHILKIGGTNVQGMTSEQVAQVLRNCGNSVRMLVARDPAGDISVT

[12] = target: MAGI1_2, Q96QZ7
Chain of MAGI1_2, Q96QZ7 (Q96QZ7 456-580): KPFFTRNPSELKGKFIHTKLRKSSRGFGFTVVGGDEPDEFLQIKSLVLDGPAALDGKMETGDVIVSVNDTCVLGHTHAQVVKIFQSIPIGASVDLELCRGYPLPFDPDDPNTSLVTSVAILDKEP

[13] = target: IL16_1, Q14005
Chain of IL16_1, Q14005 (Q14005 210-306): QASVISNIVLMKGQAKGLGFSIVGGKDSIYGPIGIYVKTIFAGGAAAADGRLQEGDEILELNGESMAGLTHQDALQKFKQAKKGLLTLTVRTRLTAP

[14] = target: MAGI2_5, Q86UL8
Chain of MAGI2_5, Q86UL8 (Q86UL8 915-1017): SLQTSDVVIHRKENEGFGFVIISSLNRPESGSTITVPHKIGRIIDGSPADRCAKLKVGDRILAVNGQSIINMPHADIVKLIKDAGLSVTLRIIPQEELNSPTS

[15] = target: T5, SHANK1, Q9Y566
T5 sequence (Q9Y566 658-767, limits assumed, looked up): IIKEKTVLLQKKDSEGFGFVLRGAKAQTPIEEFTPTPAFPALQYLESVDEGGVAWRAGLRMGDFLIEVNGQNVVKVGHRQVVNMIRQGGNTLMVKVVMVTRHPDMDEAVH

[16] = target: GOPC, Q9HD26
[17] = target: T6, GRIP1_4, Q9Y3R0
T6 sequence (Q9Y3R0 467-571, limits assumed, looked up): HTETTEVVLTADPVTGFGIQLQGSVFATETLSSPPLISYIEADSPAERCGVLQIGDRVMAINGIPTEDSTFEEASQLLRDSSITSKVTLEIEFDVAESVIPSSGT

[18] = target: GRIP2_6, Q9C0E4
Chain of GRIP2_6, Q9C0E4 (Q9C0E4 648-740): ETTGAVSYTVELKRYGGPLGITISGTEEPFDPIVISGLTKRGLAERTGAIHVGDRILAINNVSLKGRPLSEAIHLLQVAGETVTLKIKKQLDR

[19] = target: HTRA1, Q92743
Chain of HTRA1, Q92743 (Q92743 360-477): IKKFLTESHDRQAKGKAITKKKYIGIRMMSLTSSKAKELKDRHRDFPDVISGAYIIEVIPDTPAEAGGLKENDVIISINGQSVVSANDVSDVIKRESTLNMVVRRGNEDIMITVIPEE

[20] = target: FRMPD2_2, Q68DX3
Chain of FRMPD2_2, Q68DX3 (Q68DX3 944-1038): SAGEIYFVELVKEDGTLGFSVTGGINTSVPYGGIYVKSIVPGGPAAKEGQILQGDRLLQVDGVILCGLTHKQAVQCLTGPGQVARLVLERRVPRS

[21] = target: T7, PDZD2_2, O15018
T7 sequence (O15018 329-429, limits assumed, looked up): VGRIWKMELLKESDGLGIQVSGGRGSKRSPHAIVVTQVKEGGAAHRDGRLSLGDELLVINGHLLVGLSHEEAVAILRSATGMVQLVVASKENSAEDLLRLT

[22] = target: TJP1_2, Q07157
Chain of TJP1_2, Q07157 (Q07157 181-274): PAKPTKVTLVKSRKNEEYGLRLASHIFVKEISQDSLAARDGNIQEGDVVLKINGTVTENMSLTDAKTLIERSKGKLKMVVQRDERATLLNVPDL

[23] = target: T8, DLG3_1, Q92796
T8 sequence (Q92796 125-227, limits assumed, looked up): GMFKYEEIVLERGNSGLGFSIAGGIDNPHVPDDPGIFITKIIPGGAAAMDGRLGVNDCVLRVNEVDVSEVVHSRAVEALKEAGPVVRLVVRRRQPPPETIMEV

[24] = target: T9, DVL3, Q92997
T9 sequence (Q92997 244-331, limits assumed, looked up): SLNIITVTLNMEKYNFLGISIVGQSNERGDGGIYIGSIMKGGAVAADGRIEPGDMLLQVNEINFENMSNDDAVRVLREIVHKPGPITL

[25] = target: NHERF4_2, Q86UT5
Chain of NHERF4_2, Q86UT5 (Q86UT5 220-308): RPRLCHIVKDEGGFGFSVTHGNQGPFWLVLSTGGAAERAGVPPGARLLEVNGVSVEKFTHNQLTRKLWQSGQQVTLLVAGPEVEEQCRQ

[26] = target: FRMPD3, Q5JV73
Chain of FRMPD3, Q5JV73 (Q5JV73 12-100): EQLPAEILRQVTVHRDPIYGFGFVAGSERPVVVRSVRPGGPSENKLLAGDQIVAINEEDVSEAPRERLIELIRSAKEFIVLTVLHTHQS

[27] = target: GRIP2_7, Q9C0E4
Chain of GRIP2_7, Q9C0E4 (Q9C0E4 934-1023): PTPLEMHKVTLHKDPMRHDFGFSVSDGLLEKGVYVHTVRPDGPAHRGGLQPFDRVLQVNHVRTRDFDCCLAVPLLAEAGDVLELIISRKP

[28] = target: Inadl_4, Q8NI35
Chain of Inadl_4, Q8NI35 (Q8NI35 547-651): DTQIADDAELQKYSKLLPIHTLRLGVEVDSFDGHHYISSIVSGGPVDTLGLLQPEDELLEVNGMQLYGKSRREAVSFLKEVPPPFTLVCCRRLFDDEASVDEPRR

[29] = plain residues with an end cap or a label only (N-terminal biotin on a linker: gsgsgs; C-terminal amide)
[30] = plain residues with an end cap or a label only (N-terminal biotin on a linker: ahx)
[31] = plain residues with an end cap or a label only (N-terminal biotin on a linker: ttds)

Chain of LDB3, O75112 (O75112 1-94): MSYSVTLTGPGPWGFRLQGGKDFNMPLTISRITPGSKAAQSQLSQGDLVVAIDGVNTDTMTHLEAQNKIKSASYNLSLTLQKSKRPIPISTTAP

B1: AXIN1_int, O15169 (peptide)
chain: TLSLTDSSVDGIPPYR
Which results are given for B1?
pKd [1, 29]: below the threshold; pKd [2, 29]: below the threshold; pKd [3, 29]: below the threshold; pKd [4, 29]: below the threshold; pKd [5, 29]: below the threshold; pKd [6, 29]: below the threshold; pKd [7, 29]: below the threshold; pKd [8, 29]: below the threshold; pKd [9, 29]: below the threshold; pKd [10, 29]: below the threshold; pKd [11, 29]: below the threshold; pKd [12, 29]: below the threshold; pKd [13, 29]: 3.48; pKd [14, 29]: below the threshold; pKd [15, 29]: below the threshold; pKd [16, 29]: below the threshold; pKd [17, 29]: below the threshold; pKd [18, 29]: below the threshold; pKd [19, 29]: below the threshold; pKd [20, 29]: below the threshold; pKd [21, 29]: below the threshold; pKd [22, 29]: below the threshold; pKd [23, 29]: below the threshold; pKd [24, 29]: below the threshold; pKd [25, 29]: below the threshold; pKd [26, 29]: below the threshold; pKd [27, 29]: below the threshold; pKd [28, 29]: below the threshold

B2: CNKSR2, Q8WXI2 (peptide)
chain: HTHSYIETHV
What does the source list for B2?
pKd [1, 30]: below the threshold; pKd [2, 30]: below the threshold; pKd [3, 30]: below the threshold; pKd [4, 30]: 4.9; pKd [5, 30]: 4.46; pKd [6, 30]: below the threshold; pKd [7, 30]: 3.85; pKd [8, 30]: 5.14; pKd [9, 30]: below the threshold; pKd [10, 30]: below the threshold; pKd [11, 30]: below the threshold; pKd [12, 30]: 3.9; pKd [13, 30]: 3.9; pKd [14, 30]: 4.83; pKd [15, 30]: 4.24; pKd [16, 30]: below the threshold; pKd [17, 30]: below the threshold; pKd [18, 30]: below the threshold; pKd [19, 30]: 3.84; pKd [20, 30]: 4.83; pKd [21, 30]: 4.24; pKd [22, 30]: below the threshold; pKd [23, 30]: 4.08; pKd [24, 30]: below the threshold; pKd [25, 30]: below the threshold; pKd [26, 30]: below the threshold; pKd [27, 30]: below the threshold; pKd [28, 30]: below the threshold

B3: DLGAP4, Q9Y2H0 (peptide)
chain: IYVPEAQTRL
B3 was tested. Which pKd [1, 31] did it give?
Its pKd is “below the threshold”.

What about the pKd [2, 31] of the same binder?
The pKd was “below the threshold”.

And the pKd [3, 31]?
The pKd was “below the threshold”.

And the pKd [4, 31]?
The pKd was “below the threshold”.

And the pKd [5, 31]?
The pKd was “below the threshold”.

What about the pKd [6, 31] of the same binder?
The pKd was “below the threshold”.

What about the pKd [7, 31] of the same binder?
Its pKd is “below the threshold”.

And the pKd [8, 31]?
Its pKd is 5.25.

What about the pKd [9, 31] of the same binder?
Its pKd is “below the threshold”.

And the pKd [10, 31]?
The pKd was “below the threshold”.

And the pKd [11, 31]?
Its pKd is “below the threshold”.

What about the pKd [12, 31] of the same binder?
The pKd was “below the threshold”.

What about the pKd [13, 31] of the same binder?
Its pKd is “below the threshold”.

What about the pKd [14, 31] of the same binder?
The pKd was 3.82.

And the pKd [15, 31]?
Its pKd is 5.54.

What about the pKd [16, 31] of the same binder?
Its pKd is 4.21.

What about the pKd [17, 31] of the same binder?
Its pKd is “below the threshold”.

And the pKd [18, 31]?
Its pKd is “below the threshold”.

What about the pKd [19, 31] of the same binder?
Its pKd is 3.63.

What about the pKd [20, 31] of the same binder?
The pKd was “below the threshold”.

And the pKd [21, 31]?
Its pKd is “below the threshold”.

And the pKd [22, 31]?
The pKd was “below the threshold”.

And the pKd [23, 31]?
The pKd was “below the threshold”.

What about the pKd [24, 31] of the same binder?
The pKd was “below the threshold”.

What about the pKd [25, 31] of the same binder?
Its pKd is “below the threshold”.

What about the pKd [26, 31] of the same binder?
Its pKd is “below the threshold”.

And the pKd [27, 31]?
The pKd was “below the threshold”.

And the pKd [28, 31]?
The pKd was “below the threshold”.
